Experimental data: US20030186841

Tests used:
Assay in all cases: cell_activity
[1] = test system: C7LBDAS G400V G400V (human ER numbering) (synthetic); details: ligand-dependent, 6x2C7pGL3Luc
2C7LBDAS (synthetic) = details: about; estrogen, 6x2C7 SV40 luc, Cos cells
C7LBDAS (synthetic) = details: ligand-dependent, 6x2C7pGL3Luc

GCGTGGGCG (double strand) [C7 site of 6x2C7 luc reporter]
activity (fold induction) [1]: 420 | activity (fold induction) (2C7LBDAS (synthetic)): 2 | activity (fold induction) (C7LBDAS (synthetic)): 10
